# Experimental data published in patent US20130035256A1, “Chimeric Polypeptides Useful in Proximal and Dynamic High-Throughput Screening Methods” (ADDEX PHARMA SA, priority 2010, published 2013).
# “Also recorded” adds a separate entry of the source.
# T1: hM1R fused to split Gαq harbouring a luminescent protein (type RGLG-3)
# T1 chain: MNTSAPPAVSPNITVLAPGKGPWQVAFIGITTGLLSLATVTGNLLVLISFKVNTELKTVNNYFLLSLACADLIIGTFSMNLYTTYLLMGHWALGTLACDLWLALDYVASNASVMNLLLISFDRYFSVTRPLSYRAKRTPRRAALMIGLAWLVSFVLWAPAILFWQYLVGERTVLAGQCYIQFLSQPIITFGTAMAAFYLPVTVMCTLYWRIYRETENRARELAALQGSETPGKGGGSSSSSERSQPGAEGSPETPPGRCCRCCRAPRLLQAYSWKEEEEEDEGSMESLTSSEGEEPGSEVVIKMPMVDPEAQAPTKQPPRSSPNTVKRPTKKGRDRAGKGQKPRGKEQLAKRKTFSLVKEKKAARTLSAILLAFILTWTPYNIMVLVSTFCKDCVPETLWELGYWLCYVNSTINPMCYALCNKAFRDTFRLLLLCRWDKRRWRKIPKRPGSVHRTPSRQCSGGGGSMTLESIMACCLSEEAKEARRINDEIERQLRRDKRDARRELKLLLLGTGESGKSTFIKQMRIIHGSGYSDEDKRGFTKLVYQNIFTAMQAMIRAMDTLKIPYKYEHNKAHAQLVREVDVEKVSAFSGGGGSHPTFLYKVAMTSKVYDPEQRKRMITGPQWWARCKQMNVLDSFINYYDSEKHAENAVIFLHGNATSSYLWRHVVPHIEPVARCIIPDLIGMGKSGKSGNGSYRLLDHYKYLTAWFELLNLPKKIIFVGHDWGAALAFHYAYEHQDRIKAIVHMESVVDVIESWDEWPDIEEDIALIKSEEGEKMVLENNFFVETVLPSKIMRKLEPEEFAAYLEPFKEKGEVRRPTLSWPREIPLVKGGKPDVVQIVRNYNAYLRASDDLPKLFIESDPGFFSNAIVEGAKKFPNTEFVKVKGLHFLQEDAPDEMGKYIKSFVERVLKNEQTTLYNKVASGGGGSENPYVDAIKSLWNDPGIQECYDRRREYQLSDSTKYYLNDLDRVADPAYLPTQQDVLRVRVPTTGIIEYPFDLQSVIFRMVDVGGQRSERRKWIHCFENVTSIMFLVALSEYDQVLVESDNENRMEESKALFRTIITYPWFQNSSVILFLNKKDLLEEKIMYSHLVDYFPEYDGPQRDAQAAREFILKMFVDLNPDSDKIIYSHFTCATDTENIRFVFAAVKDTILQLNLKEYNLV
# T2: hM4-R-Gαo^1-91-Luciferase-Gαo^92-354 fusion protein (type RGLG-2)
# T2 chain: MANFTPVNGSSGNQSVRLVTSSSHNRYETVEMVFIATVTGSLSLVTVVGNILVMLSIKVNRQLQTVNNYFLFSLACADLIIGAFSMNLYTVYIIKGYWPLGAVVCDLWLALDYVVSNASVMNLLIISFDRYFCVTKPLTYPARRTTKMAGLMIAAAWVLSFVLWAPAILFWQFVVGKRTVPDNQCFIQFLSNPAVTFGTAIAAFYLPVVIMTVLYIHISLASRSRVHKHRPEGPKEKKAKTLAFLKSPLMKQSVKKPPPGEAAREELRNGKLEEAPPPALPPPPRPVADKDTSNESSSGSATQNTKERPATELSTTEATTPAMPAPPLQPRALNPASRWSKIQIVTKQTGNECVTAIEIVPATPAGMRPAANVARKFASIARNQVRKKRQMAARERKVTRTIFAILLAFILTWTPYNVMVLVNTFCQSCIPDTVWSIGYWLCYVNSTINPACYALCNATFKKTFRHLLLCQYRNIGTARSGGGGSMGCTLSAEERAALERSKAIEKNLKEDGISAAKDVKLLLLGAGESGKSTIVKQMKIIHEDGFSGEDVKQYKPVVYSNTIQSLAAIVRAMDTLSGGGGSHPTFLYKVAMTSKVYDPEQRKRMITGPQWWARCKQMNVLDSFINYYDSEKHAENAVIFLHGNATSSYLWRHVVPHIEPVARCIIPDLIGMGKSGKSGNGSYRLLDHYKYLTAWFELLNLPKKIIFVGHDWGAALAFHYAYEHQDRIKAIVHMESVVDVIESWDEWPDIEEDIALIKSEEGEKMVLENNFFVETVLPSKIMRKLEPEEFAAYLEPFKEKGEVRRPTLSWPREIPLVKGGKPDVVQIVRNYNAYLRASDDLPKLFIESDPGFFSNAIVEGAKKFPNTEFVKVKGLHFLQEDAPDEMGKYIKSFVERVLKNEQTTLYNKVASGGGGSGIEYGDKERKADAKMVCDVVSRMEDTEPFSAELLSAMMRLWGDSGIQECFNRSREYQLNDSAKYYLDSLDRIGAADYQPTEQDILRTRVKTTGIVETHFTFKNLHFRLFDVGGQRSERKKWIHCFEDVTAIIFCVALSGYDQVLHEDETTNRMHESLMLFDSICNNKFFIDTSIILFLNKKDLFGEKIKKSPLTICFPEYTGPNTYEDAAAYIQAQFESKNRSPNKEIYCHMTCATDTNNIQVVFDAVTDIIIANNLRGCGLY
# Columns and labels:
# [1] = target: human GIPR-Renilla luciferase-Gαs long fusion protein (type RLG) (human); assay: cell-based or functional assay
# human GIPR-Renilla luciferase-Gαs long fusion protein (type RLG) (human), sequence (chain, as listed by the source limits assumed): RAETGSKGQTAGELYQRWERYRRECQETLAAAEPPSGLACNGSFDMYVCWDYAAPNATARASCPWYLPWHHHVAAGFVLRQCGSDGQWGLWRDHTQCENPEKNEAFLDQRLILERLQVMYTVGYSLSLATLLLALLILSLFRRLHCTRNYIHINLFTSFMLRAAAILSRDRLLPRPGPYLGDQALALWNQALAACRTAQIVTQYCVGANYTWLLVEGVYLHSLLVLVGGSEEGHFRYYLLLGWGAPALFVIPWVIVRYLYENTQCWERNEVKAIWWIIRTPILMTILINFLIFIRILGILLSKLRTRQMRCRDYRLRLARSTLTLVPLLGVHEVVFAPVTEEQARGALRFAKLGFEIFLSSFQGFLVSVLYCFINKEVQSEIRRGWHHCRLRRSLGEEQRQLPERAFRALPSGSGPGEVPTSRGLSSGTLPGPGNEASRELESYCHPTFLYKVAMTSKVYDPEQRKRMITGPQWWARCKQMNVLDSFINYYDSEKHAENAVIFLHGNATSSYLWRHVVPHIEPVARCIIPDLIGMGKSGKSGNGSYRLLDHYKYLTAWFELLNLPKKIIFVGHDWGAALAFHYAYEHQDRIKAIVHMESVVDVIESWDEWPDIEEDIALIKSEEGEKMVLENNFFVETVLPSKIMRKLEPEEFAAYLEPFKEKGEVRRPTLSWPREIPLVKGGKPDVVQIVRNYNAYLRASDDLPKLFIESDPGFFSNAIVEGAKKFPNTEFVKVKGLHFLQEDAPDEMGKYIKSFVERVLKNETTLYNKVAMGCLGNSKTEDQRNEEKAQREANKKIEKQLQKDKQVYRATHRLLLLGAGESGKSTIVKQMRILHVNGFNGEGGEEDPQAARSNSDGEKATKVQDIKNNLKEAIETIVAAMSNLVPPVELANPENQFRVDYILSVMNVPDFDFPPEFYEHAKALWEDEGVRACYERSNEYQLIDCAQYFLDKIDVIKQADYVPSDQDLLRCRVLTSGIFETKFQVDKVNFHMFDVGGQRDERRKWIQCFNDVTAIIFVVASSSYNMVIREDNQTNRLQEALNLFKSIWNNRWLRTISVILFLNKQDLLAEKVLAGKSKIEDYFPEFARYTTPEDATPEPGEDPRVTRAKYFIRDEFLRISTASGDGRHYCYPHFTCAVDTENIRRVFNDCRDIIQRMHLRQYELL
# [2] = target: T3, chimeric M4R (RGLG-2) (Homo sapiens, UniProt P08173); assay: BRET assay of the invention, cells co-expressing chimeric M4R (RGLG-2) and FP-Gγ9; format: cell-based; details: increasing concentrations of ligand
# T3 construct: ID; NOs; expressed in transfected cells
# Experimental: The same cells as described for FIG. 10 A were used. […] The decrease of the signal below baseline in the PTX-treated condition confirms a constitutive activity that has been described for the M4R. […]
# A typical experiment has the following sequence.
# The assay of the present invention was compared with a state of the art calcium based assay. […] In calcium-based assay, a calcium flux is measured in cells co-expressing recombinant M4R and modified Gαq. In the assay in accordance with the present invention, BRET in measured in cells co-expressing a chimeric M4R according to RGLG-2 (construct and cell-line from FIG. 2C, Table 6) and FP-Gγ9 (as described in FIG. 10A). The data represent mean values and they are normalized to the maximal effect of the orthosteric agonist after the subtraction of the basal values.
# [3] = tested on: receptors endogenously expressed in non-transfected HEK cells; assay: cAMP accumulation in non-transfected HEK cells; format: cell-based, human; details: increasing concentrations of ligand
# Excerpt: These ligands are the following: NECA (empty inverted triangles), Corticotropin releasing factor (CRF) (empty diamonds), calcitonin (full circles), isoproterenol (full triangles), UTP (full inverted triangles) and carbachol (full squares). […]
# [4] = target: T4, chimeric GIPR (Homo sapiens, UniProt P48546); assay: BRET assay, specificity of the response of the chimeric GIPR (stable cell line, FP-Gγ9); format: cell-based; details: increasing concentrations of ligand
# T4 construct: ID; NOs; expressed in transfected cells
# Experimental: 5 or 10 minutes after the addition of coelenterazine H to the cells, the read plate is placed in the FLIPR tetra and the measurement begins.
# Finally, a three-addition protocol can also be run on the FLIPR tetra, containing three compound plates, of which the first one usually contains different candidate agents, the second one an agonist at its EC20 and the third one an agonist at its EC80, so that a screen for both positive and negative allosteric modulators can be run at the same time.
# The camera is adjusted in such a way that the gain is set to a maximum of 28,000× and the shutters are opened 100%. The signal captured is regulated by adjusting the exposure time to 0.1 to 3 seconds ideally resulting of a signal between 30,000-60,000 RLU. The read interval (emission filter 1, emission filter 2) is adjusted to the minimal value that results from the addition of the two exposure times (=2×0.1 to 3 seconds) plus the time needed to move the filters from position 1 to position 2 (0.3 sec), resulting in a maximal read frequency of 0.5 seconds (2 Hz).
# Data on FIG. 6 were obtained by applying a two-addition protocol as described above with respect to FIG. 4, with the main differences being the final concentration of coelenterazine H of 6 μM, the exposure time in both channels of 1.5 seconds and the read interval of 3.3 seconds, as well as the presence of 0.2% BSA in the HBSS++ buffer for diluting peptidic ligands. […] The effects of the ligands were read for another 180 reads. Area under curve of blue/yellow ratio from count 31 to the end of the measurement was taken for the analysis and plotted against ligand concentration for the construction of the graph in FIG. 6.
# [5] = target: human GLP-1R-Renilla luciferase-Gαs long fusion protein (type RLG) (human); assay: cell-based or functional assay
# human GLP-1R-Renilla luciferase-Gαs long fusion protein (type RLG) (human), sequence (chain, as listed by the source limits assumed): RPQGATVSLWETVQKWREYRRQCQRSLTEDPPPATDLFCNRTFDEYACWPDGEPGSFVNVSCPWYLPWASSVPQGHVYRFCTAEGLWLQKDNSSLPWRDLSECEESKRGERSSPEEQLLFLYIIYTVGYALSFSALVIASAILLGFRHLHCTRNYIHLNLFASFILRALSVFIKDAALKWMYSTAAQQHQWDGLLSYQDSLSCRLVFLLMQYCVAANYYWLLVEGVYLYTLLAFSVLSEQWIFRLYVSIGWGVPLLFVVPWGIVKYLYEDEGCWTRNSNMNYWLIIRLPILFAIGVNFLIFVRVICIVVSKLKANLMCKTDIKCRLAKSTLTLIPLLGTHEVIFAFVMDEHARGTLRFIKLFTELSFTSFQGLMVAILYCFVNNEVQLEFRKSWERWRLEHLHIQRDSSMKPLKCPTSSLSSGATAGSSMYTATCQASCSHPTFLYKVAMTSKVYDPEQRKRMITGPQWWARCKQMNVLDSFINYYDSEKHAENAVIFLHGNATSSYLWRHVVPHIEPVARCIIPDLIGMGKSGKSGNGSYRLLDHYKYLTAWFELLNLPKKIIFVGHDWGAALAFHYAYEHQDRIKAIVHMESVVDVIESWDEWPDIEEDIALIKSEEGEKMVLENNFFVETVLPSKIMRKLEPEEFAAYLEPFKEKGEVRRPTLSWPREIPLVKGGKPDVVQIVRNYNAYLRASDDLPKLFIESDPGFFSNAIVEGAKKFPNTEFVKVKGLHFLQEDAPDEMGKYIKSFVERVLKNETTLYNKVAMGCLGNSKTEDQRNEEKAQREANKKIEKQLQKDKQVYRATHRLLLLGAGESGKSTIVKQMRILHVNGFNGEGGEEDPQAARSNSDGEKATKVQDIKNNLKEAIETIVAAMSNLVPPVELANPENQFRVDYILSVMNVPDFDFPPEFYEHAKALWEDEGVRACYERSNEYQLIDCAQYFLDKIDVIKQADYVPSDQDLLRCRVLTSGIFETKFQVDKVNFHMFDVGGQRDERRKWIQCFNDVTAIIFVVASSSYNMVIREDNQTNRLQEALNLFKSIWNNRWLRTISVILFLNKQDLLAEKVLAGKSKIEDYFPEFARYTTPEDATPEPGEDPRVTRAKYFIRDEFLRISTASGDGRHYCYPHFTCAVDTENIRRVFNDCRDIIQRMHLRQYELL
# [6] = target: T5, GIPR-L-G (human GIP receptor) (Homo sapiens, UniProt P48546); assay: BRET assay, HEK cells transiently co-transfected with GIPR-L-G and a Gγ construct; format: cell-based; details: cells coexpressing GIPR-L-G and the Gγ construct, exposed to GIP
# T5 construct: ID; NOs; expressed in transfected cells; host or cells: HEK cells, transient
# [7] = target: T6, GLP1R-L-G (human GLP-1 receptor) (Homo sapiens, UniProt P43220); assay: BRET assay, HEK cells transiently co-transfected with GLP1R-L-G and a Gγ construct; format: cell-based; details: cells coexpressing GLP1R-L-G and the Gγ construct, exposed to GLP-1
# T6 construct: ID; expressed in transfected cells; host or cells: HEK cells, transient
# [8] = target: T1, hM1R fused to split Gαq harbouring a …
# [9] = target: hM4-R RGLG-2 fusion construct with the PTX-insensitive mutant (C351S) of Gαo
# [10] = target: T2, hM4-R-Gαo^1-91-Luciferase-Gαo^92-354 …
molecule,measurement,setting,value
GIP (from UniProt P09681 52-93) (peptide),"EC50 (GIP), BRET receptor activation; cells co-expressing FP-Gγ9",[1],0.3 nM
same,"EC50 (GIP), BRET receptor activation; cells co-expressing FP-Gγ11",[1],0.4 nM
same,"EC50 (GIP), BRET receptor activation; cells co-expressing FP-Gγ13",[1],0.3 nM
same,"EC50 (GIP), BRET receptor activation; cells co-expressing Gγ5-FP",[1],5.5 nM
same,"EC50 (GIP), BRET receptor activation; cells co-expressing Gγ9-FP",[1],1.4 nM
same,"EC50 (GIP), BRET receptor activation; cells co-expressing Gγ10-FP",[1],8.9 nM
same,"EC50 (GIP), BRET receptor activation; cells co-expressing Gγ11-FP",[1],1.6 nM
same,"EC50 (GIP), BRET receptor activation; cells co-expressing Gγ13-FP",[1],0.6 nM
CC(C)NCC(O)c1ccc(O)c(O)c1 (stereo not drawn) [isoproterenol],activation of the chimeric M4R (BRET),[2],lack of activation
same,"activation of endogenously expressed receptors, cAMP accumulation",[3],activated; also recorded: increase in cAMP
same,activation of the chimeric GIPR (BRET),[4],lack of activation
"O=c1ccn([C@@H]2O[C@H](COP(=O)(O)OP(=O)(O)OP(=O)(O)O)[C@@H](O)[C@H]2O)c(=O)[nH]1 [UTP, uridine-5′-triphosphate]","activation of endogenously expressed receptors, cAMP accumulation",[3],activated; also recorded: increase in cAMP
same,activation of the chimeric GIPR (BRET),[4],lack of activation
GLP-1 (from UniProt P01275 21-180) (peptide),"EC50 (GLP-1), BRET receptor activation; cells co-expressing FP-Gγ1",[5],1.1 nM
same,"EC50 (GLP-1), BRET receptor activation; cells co-expressing FP-Gγ2",[5],0.7 nM
same,"EC50 (GLP-1), BRET receptor activation; cells co-expressing FP-Gγ3",[5],0.3 nM
same,"EC50 (GLP-1), BRET receptor activation; cells co-expressing FP-Gγ4",[5],1.1 nM
same,"EC50 (GLP-1), BRET receptor activation; cells co-expressing FP-Gγ5",[5],0.1 nM
same,"EC50 (GLP-1), BRET receptor activation; cells co-expressing FP-Gγ7",[5],0.4 nM
same,"EC50 (GLP-1), BRET receptor activation; cells co-expressing FP-Gγ8",[5],1.4 nM
same,"EC50 (GLP-1), BRET receptor activation; cells co-expressing FP-Gγ9",[5],0.4 nM
same,"EC50 (GLP-1), BRET receptor activation; cells co-expressing FP-Gγ10",[5],0.3 nM
same,"EC50 (GLP-1), BRET receptor activation; cells co-expressing FP-Gγ11",[5],0.7 nM
same,"EC50 (GLP-1), BRET receptor activation; cells co-expressing FP-Gγ12",[5],0.3 nM
same,"EC50 (GLP-1), BRET receptor activation; cells co-expressing FP-Gγ13",[5],0.4 nM
same,"EC50 (GLP-1), BRET receptor activation; cells co-expressing Gγ1-FP",[5],1.1 nM
same,"EC50 (GLP-1), BRET receptor activation; cells co-expressing Gγ2-FP",[5],3 nM
same,"EC50 (GLP-1), BRET receptor activation; cells co-expressing Gγ3-FP",[5],1.5 nM
same,"EC50 (GLP-1), BRET receptor activation; cells co-expressing Gγ4-FP",[5],4.3 nM
same,"EC50 (GLP-1), BRET receptor activation; cells co-expressing Gγ7-FP",[5],5.2 nM
same,"EC50 (GLP-1), BRET receptor activation; cells co-expressing Gγ8-FP",[5],2.3 nM
same,"EC50 (GLP-1), BRET receptor activation; cells co-expressing Gγ9-FP",[5],1.7 nM
same,"EC50 (GLP-1), BRET receptor activation; cells co-expressing Gγ10-FP",[5],9.2 nM
same,"EC50 (GLP-1), BRET receptor activation; cells co-expressing Gγ11-FP",[5],3.1 nM
same,"EC50 (GLP-1), BRET receptor activation; cells co-expressing Gγ12-FP",[5],3.1 nM
same,"EC50 (GLP-1), BRET receptor activation; cells co-expressing Gγ13-FP",[5],1 nM
C[N+](C)(C)CCOC(N)=O [carbachol],activation of the chimeric M4R (BRET),[2],activation
same,"activation of endogenously expressed receptors, cAMP accumulation",[3],activated; also recorded: increase in cAMP
same,activation of the chimeric GIPR (BRET),[4],lack of activation
"Gγ9-FP: fusion protein of human G-protein gamma9 and yellow fluorescent protein YPet, SEQ. ID. NOs. 5, 6",HTS compat.,[6],+
same,HTS compat.,[7],+
calcitonin: ligand of a receptor endogenously expressed in HEK cells,activation of the chimeric M4R (BRET),[2],lack of activation
same,"activation of endogenously expressed receptors, cAMP accumulation",[3],activated; also recorded: increase in cAMP
same,activation of the chimeric GIPR (BRET),[4],lack of activation
"CRF: Corticotropin releasing factor, ligand of a receptor endogenously expressed in HEK cells",activation of the chimeric M4R (BRET),[2],lack of activation
same,"activation of endogenously expressed receptors, cAMP accumulation",[3],increase in cAMP
same,"activation of endogenously expressed receptors, cAMP accumulation",[3]; listed as Corticotropin releasing factor,activated
same,activation of the chimeric GIPR (BRET),[4],lack of activation
"CCNC(=O)[C@H]1O[C@@H](n2cnc3c(N)ncnc32)[C@H](O)[C@@H]1O [NECA, 5′-N-ethylcarboxamidoadenosine]",activation of the chimeric M4R (BRET),[2],lack of activation
same,"activation of endogenously expressed receptors, cAMP accumulation",[3],activated; also recorded: increase in cAMP
same,activation of the chimeric GIPR (BRET),[4],lack of activation
Bordetella pertussis toxin (protein) DDPPATVYRYDSRPPEDVFQNGFTAWGNNDNVLDHLTGRSCQVGSSNSAFVSTSSSRRYTEVYLEHRMQEAVEAERAGRGTGHFIGYIYEVRADNNFYGAASSYFEYVDTYGDNAGRILAGALATYQSEYLAHRRIPPENIRRVTRVYHNGITGETTTTEYSNARYVSQQTRANPNPYTSRRSVASIVGTLVRMAPVIGACMARQAESSEAMAAWSERAGEAMVLVYYESIAYSF,BRET signal change in response to acetylcholine after overnight incubation with PTX,[8],shows no effect on the BRET signal changes obtained in response to Ach
same,BRET signal change in response to acetylcholine after overnight incubation with PTX,[9],The Gαo-inhibiting effects of PTX are rescued by the C351S substitution
same,BRET signal change in response to acetylcholine after overnight incubation with 100 ng/ml PTX,[10],PTX effectively blocks the BRET signal changes compared to the non-PTX treated condition
